Reference: paper PMC4666394, “Human HLTF mediates postreplication repair by its HIRAN domain-dependent replication fork remodelling”

Assays:
[1] = target: T1, HLTF HIRAN domain NN90,91AA (human, UniProt Q14527 56-168, N90A;N91A); assay: EMSA; Competition: 20 mM HEPES pH 7.5, 150 mM NaCl, 1 mM DTT, 0.1 ug/mL BSA, 0.2% NP40, 10% glycerol, room temperature 15 min; 6% native PAGE 0.5x Tris-borate without EDTA at 4 C; direct gel shift as in cited earlier work; conditions: protein: recombinant, tags: FLAG or GST-FLAG, label: 5' 32P
T1 sequence: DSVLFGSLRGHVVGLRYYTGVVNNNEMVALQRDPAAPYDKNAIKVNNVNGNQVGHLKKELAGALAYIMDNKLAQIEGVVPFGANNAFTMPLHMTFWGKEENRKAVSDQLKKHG

HLTF HIRAN domain WT [2] = target: T2, HLTF HIRAN domain WT (human, UniProt Q14527 56-168); assay: as above; conditions: protein: recombinant, tags: FLAG (GST-FLAG cleaved by PreScission) or GST-FLAG, label: 5' 32P
T2 sequence: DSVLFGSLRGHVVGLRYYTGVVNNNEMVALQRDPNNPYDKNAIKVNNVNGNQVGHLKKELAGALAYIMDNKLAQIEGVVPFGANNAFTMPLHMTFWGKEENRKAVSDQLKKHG

HLTF HIRAN domain WT [3] = target: T2, HLTF HIRAN domain WT; assay: EMSA; high affinity; Competition: 20 mM HEPES pH 7.5, 150 mM NaCl, 1 mM DTT, 0.1 ug/mL BSA, 0.2% NP40, 10% glycerol, room temperature 15 min; 6% native PAGE 0.5x Tris-borate without EDTA at 4 C; direct gel shift as in cited earlier work; conditions: protein: recombinant; tags: FLAG (GST-FLAG cleaved by PreScission) or GST-FLAG; label: 5' 32P; fork 1:4 2:3 3:4; two 30 bp daughter arms, 45 bp parental duplex, no ss region
GST-FLAG-HIRAN (WT) = target: T3, GST-FLAG-HIRAN (WT) (human, UniProt Q14527 56-168); assay: competition; 0-1 uM competitor against Cy5 fork; competes better than ssDNA; Competition: 20 mM HEPES pH 7.5, 150 mM NaCl, 1 mM DTT, 0.1 ug/mL BSA, 0.2% NP40, 10% glycerol, room temperature 15 min; 6% native PAGE 0.5x Tris-borate without EDTA at 4 C; direct gel shift as in cited earlier work; conditions: protein: recombinant; tags: GST-FLAG; label: 5' fluorescein on strand 4 (O3063); fork 1:4 2:3 3:4; two 30 bp daughter arms, 45 bp parental duplex, no ss region
T3 sequence: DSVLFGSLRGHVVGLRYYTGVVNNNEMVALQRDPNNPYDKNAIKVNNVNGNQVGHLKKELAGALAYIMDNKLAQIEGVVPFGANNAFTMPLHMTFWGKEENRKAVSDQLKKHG

[4] = 30 bp duplex, 5' overhang 45 nt on strand 2

B1: ds75-mer O1058/O1118 (dsDNA)
DNA 1: AGCTACCATGCCTGCCTCAAGAATTCGTAATATGCCTACACTGGAGTACCGGAGCATCGTCGTGACTGGGAAAAC
DNA 2: GTTTTCCCAGTCACGACGATGCTCCGGTACTCCAGTGTAGGCATATTACGAATTCTTGAGGCAGGCATGGTAGCT
- binding result ([1]; blunt): no binding
- binding result (HLTF HIRAN domain WT [2]; blunt): no binding

B2: replication fork O1054/O1056/O1058/O1118 (structured_DNA)
DNA 1: AGCTACCATGCCTGCCTCAAGAATTCGTAA
DNA 2: TTACGAATTCTTGAGGCAGGCATGGTAGCT
DNA 3: AGCTACCATGCCTGCCTCAAGAATTCGTAATATGCCTACACTGGAGTACCGGAGCATCGTCGTGACTGGGAAAAC
DNA 4: GTTTTCCCAGTCACGACGATGCTCCGGTACTCCAGTGTAGGCATATTACGAATTCTTGAGGCAGGCATGGTAGCT
- binding result ([1]; fork 1:4 2:3 3:4, two 30 bp daughter arms, 45 bp parental duplex, no ss region): no binding
- binding result (HLTF HIRAN domain WT [3]): binds

B3: partial duplex O1054/O1118 (mixed)
DNA 1: AGCTACCATGCCTGCCTCAAGAATTCGTAA
DNA 2: GTTTTCCCAGTCACGACGATGCTCCGGTACTCCAGTGTAGGCATATTACGAATTCTTGAGGCAGGCATGGTAGCT
- binding result [1, 4]: no binding
- binding result (HLTF HIRAN domain WT [2]; [4]): binds

B4: replication fork O1054/O1056/O1058/O3063 (structured_DNA)
DNA 1: AGCTACCATGCCTGCCTCAAGAATTCGTAA
DNA 2: TTACGAATTCTTGAGGCAGGCATGGTAGCT
DNA 3: AGCTACCATGCCTGCCTCAAGAATTCGTAATATGCCTACACTGGAGTACCGGAGCATCGTCGTGACTGGGAAAAC
DNA 4: GTTTTCCCAGTCACGACGATGCTCCGGTACTCCAGTGTAGGCATATTACGAATTCTTGAGGCAGGCATGGTAGCT
- binding result (GST-FLAG-HIRAN (WT)): binds
